The data set concerns DBA/2 mice bearing Cloudman S91 melanomas. To be noted: mouse, in vivo. The text has this:
Br. J. Cancer (1990), 62, 919-922 C) Macmillan Press Ltd., 1990 A chelating derivative of oa-melanocyte stimulating hormone as a potential imaging agent for malignant melanoma D.R. Bard, C.G. Knight & D.P. Page-Thomas Strangeways Research Laboratory, Worts' Causeway, Cambridge CB] 4RN, UK Summary A chelating derivative of a-melanocyte stimulating hormone (MSH) has been synthesised, in which two molecules of the hormone are cross-linked by diethylenetriamine pentaacetic acid (DTPA). […] When DBA/2 mice bearing the same tumour were injected with bisMSH-DTPA labelled with the 'y-emitting isotope indium-1Il ("'In), the radioactivity became rapidly associated with the melanoma tissue. […] Uptake of radioactivity by the tumours was inhibited by a 200-fold molar excess of MSH, whereas uptake by liver, kidney, spleen, lung, brain, eye and skin was unaffected. We conclude that bisMSH-DTPA may offer an alternative to antibody targeting in the imaging of malignant melanoma. Malignant melanoma is characterised by a tendency to meta- stasise early and to be resistant to most conventional therapies. The initial surgical management of the disease would benefit if it were possible to discover whether metas- tasis had taken place and to which locations. […]

In the case of `CSCC[C@H](NC(=O)[C@H](CO)NC(=O)[C@H](Cc1ccc(O)cc1)NC(=O)[C@H](CO)NC(=O)CN(CCN(CCN(CC(=O)O)CC(=O)N[C@@H](CO)C(=O)N[C@@H](Cc1ccc(O)cc1)C(=O)N[C@@H](CO)C(=O)N[C@@H](CCSC)C(=O)N[C@@H](CCC(=O)O)C(=O)N[C@@H](Cc1c[nH]cn1)C(=O)N[C@@H](Cc1ccccc1)C(=O)N[C@@H](CCCNC(=N)N)C(=O)N[C@@H](Cc1c[nH]c2ccccc12)C(=O)NCC(=O)N[C@@H](CCCCN)C(=O)N1CCC[C@H]1C(=O)N[C@H](C(N)=O)C(C)C)CC(=O)O)CC(=O)O)C(=O)N[C@@H](CCC(=O)O)C(=O)N[C@@H](Cc1c[nH]cn1)C(=O)N[C@@H](Cc1ccccc1)C(=O)N[C@@H](CCCNC(=N)N)C(=O)N[C@@H](Cc1c[nH]c2ccccc12)C(=O)NCC(=O)N[C@@H](CCCCN)C(=O)N1CCC[C@H]1C(=O)N[C@H](C(N)=O)C(C)C` [bisMSH-DTPA], the “crossing of the blood-brain barrier” value was “unable to cross the blood-brain barrier”. Moreover, the “maximum level in the blood following injection” value (ip) is listed as “about 0.8 µg ml-1”.
